Target: hyperactive Tn5 transposase (EK54, MA56, LP372) expressed from pMIR86 (UniProt Q46731 Q46731:1-476, E54K,M56A,L372P)
Assay: cell_activity; NIH3T3 co-transfection
Conditions: tags: pCI mammalian expression vector; chain copies: 2; PshA I blunt-ended linear transposon, ME inverted repeats at both ends
Excerpt: C. Tn5 transposase expressed in eukaryotic cells increases the number of integration events. Plasmid pMIR86 encoding transposase was co-transfected into NIH3T3 cells with transposon plasmid pMIR136 (pSEAP-Tn). The pMIR136 was either linearized with PshA I to form the transposon (SEAP-Tn), or cut with Eco R V/Sse8387 I to remove Tn5 elements from the transposon (SEAP), or left supercoiled (pSEAP-Tn). Control reactions included the same transposon DNA samples but with pCI-Luc (Promega) instead of pMIR86. […] No increase in colonies was observed when linear transposon DNA lacking flanking recognition elements was used.

B1: SEAP-Tn linear transposon with mosaic ends (dsDNA)
DNA 1: CTGTCTCTTATACACATCT
DNA 2: AGATGTGTATAAGAGACAG
activity: 1.6 fold colonies vs control plasmid

Source: patent US20030143740, “Processes for transposase mediated integration into mammalian cells” (published 2003)
